Assay results from patent US20100322946A1 (Genentech, published 2010).
Several values for one entry are separate records, joined by “and”; a condition that tells them apart may be missing. Equal values may be shown once. Read-outs that look alike come from different tables or passages of the source.

Legend:
[1] = target: T1, HER2 extracellular domain (human, UniProt P04626 23-652); assay: competition ELISA of phage-displayed Fab
T1 construct: extracellular domain; also called HER2-ECD; Her2-ECD

[2] = target: T2, VEGF109 (receptor-binding domain of human VEGF, residues 8-109) (human, UniProt P15692 214-315); assay: calculated from ΔCp
T2 construct: also called hVEGF109
T2 sequence (looked up): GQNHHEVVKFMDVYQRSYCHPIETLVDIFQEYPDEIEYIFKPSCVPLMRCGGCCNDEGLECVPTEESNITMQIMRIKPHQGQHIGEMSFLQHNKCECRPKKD

[3] = target: T2, VEGF109 (receptor-binding domain of …); assay: calculated from the SPR KD
[4] = target: T2, VEGF109 (receptor-binding domain of …); assay: isothermal titration calorimetry
[5] = target: T2, VEGF109 (receptor-binding domain of …); assay: calculated from ΔStot, ΔSdesolv and ΔSrt
human VEGF109 [6] = target: T3, human VEGF109 (human, UniProt P15692 214-315, limits assumed); assay: SPR, captured IgG, antigen in solution, 30°C
T3 construct: also called hVEGF109
T3 sequence (looked up): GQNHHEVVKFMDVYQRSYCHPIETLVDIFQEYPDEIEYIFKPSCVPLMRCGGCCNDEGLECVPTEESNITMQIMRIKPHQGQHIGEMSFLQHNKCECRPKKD

human death receptor 5 = target: T4, human death receptor 5 (human, UniProt O14763 56-210); assay: ELISA: antigen immobilized, hIgG 15 µg/mL, OD450; bars assigned by their left-to-right order
T4 construct: also called hDR5; DR5

hVEGF-C [7] = target: T5, hVEGF-C (human, UniProt P49767 103-227); assay: as above
T5 construct: also called vascular endothelial growth factor C
T5 sequence (looked up): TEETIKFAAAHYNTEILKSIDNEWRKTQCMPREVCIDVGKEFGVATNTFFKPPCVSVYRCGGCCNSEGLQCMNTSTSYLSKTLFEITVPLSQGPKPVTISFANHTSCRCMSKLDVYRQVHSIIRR

hVEGF-D [8] = target: T6, hVEGF-D (human, UniProt O43915 93-201); assay: as above
T6 construct: also called vascular endothelial growth factor D
T6 sequence (looked up): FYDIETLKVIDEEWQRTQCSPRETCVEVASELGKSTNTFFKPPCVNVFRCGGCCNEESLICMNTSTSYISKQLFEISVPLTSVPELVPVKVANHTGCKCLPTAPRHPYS

[9] = target: T7, epidermal growth factor receptor extracellular domain (human, UniProt P00533 25-645); assay: as above
T7 construct: extracellular domain; also called hEGFR

bovine serum albumin = target: T8, bovine serum albumin (bovine, UniProt P02769 25-607); assay: as above
T8 construct: also called BSA

HER3 ECD = target: T9, HER3 ECD; assay: as above
T9 construct: also called ErbB3/HER3 extracellular domain

human VEGF109 [10] = target: T3, human VEGF109; assay: BIAcore SPR
[11] = target: T10, murine VEGF (form not stated) (mouse, UniProt Q00731-2 27-190); assay: BIAcore SPR, mVEGF108
T10 construct: also called mVEGF
T10 sequence (looked up): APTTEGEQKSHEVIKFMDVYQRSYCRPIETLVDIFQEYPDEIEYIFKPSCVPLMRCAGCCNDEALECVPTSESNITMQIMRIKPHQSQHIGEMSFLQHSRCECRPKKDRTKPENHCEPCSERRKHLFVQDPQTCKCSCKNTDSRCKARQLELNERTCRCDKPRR

[12] = target: T11, human VEGF (form not stated) (human, UniProt P15692-4 27-191); assay: competitive phage ELISA
T11 construct: also called hVEGF; hVEGF-A

[13] = target: T11, human VEGF (form not stated); assay: competitive phage ELISA; remark: listed apart in the source
[14] = target: T1, HER2 extracellular domain; assay: BIAcore SPR
human VEGF109 [15] = target: T3, human VEGF109; assay: BIAcore SPR, steady state analysis
[16] = target: T11, human VEGF (form not stated); assay: competitive phage ELISA; remark: listed apart in the source
[17] = target: T1, HER2 extracellular domain; assay: competitive phage ELISA
[18] = target: T1, HER2 extracellular domain; assay: Her2 in solution (varied) against DR5 coat
hVEGF-C [19] = target: T5, hVEGF-C; assay: ELISA
hVEGF-D [20] = target: T6, hVEGF-D; assay: ELISA

B1: 20.49 (Fab, V domains shown)
VH: not shown
VL: DIQMTQSPSSLSASVGDRVTITCRASVDLPKSVSGYVAWYQQKPGKAPKLLIYWGSFLYSGVPSRFSGSGSGTDFTLTISSLQPEDFATYYCQQHFTSPPTFGQGTKVEIKR
[1]
  IC50: 2.6 nM

B2: 35.95 (Fab, V domains shown)
VH: not shown
VL: DIQMTQSPSSLSASVGDRVTITCRAIENLPKSVSGYVAWYQQKPGKAPKLLIYWGSFLYSGVPSRFSGSGSGTDFTLTISSLQPEDFATYYCQQHYTSPPTFGQGTKVEIKR
[1]
  IC50: 4.3 nM

B3: bH1-44 Fab (Fab, V domains shown)
VH: EVQLVESGGGLVQPGGSLRLSCAASGFNISGTYIHWVRQAPGKGLEWVARIYPSEGYTRYADSVKGRFTISADTSKNTAYLQMNSLRAEDTAVYYCSRWVGVGFYAMDYWGQGTLVTVSS
VL: DIQMTQSPSSLSASVGDRVTITCRASQNIAKTISGYVAWYQQKPGKAPKLLIYWGSFLYSGVPSRFSGSGSGTDFTLTISSLQPEDFATYYCQQHYSSPPTFGQGTKVEIKR
notes: also called bH-44
[2]
  ΔSdesolv: 9.6e-05 kcal/mol
[3]
  ΔG: -11.8 kcal/mol
[4]
  ΔH: -7.1 kcal/mol
[5]
  ΔSconf: -7.2e-05 kcal/mol

B4: 35.45 (Fab, V domains shown)
VH: not shown
VL: DIQMTQSPSSLSASVGDRVTITCRASEDIPKTVSGYVAWYQQKPGKAPKLLIYWGSFLYSGVPSRFSGSGSGTDFTLTISSLQPEDFATYYCQQHFSSPPTFGQGTKVEIKR
[1]
  IC50: 1.1 nM

B5: 20.80 (Fab, V domains shown)
VH: not shown
VL: DIQMTQSPSSLSASVGDRVTITCRASEDIPKSISGYVAWYQQKPGKAPKLLIYWGSFLYSGVPSRFSGSGSGTDFTLTISSLQPEDFATYYCQQHFSSPPTFGQGTKVEIKR
[1]
  IC50: 2.2 nM

B6: bH1-81 IgG (bispecific antibody, V domains shown)
VH: not shown
VL: DIQMTQSPSSLSASVGDRVTITCRASQNIAKTISGYVAWYQQKPGKAPKLLIYWGSFLYSGVPSRFSGSGSGTDFTLTISSLQPEDFATYYCQQHYSSPPTFGQGTKVEIKR
notes: also called bH1-81 antibody; not shown: rest of the human IgG heavy-chain constant region
Human VEGF109 [6]
  Kd: 41 nM
Human death receptor 5
  binding result: no binding (tested: 15 µg/mL)
hVEGF-C [7]
  binding result: no binding (tested: 15 µg/mL)
hVEGF-D [8]
  binding result: no binding (tested: 15 µg/mL)
[9]
  binding result: no binding (tested: 15 µg/mL)
Bovine serum albumin
  binding result: no binding (tested: 15 µg/mL)
HER3 ECD
  binding result: no binding (tested: 15 µg/mL)

B7: 3_7 Fab (Fab, V domains shown)
VH: not shown
VL: DIQMTQSPSSLSASVGDRVTITCRASQYIWRYVAWYQQKPGKAPKLLIYWGSSLYSGVPSRFSGSGSGTDFTLTISSLQPEDFATYYCQQGLWYSPPTFGQGTKVEIK
Human VEGF109 [10]
  Kd: 3 nM
  koff: 0.0025 s⁻¹
  kon: 800000 M⁻¹ s⁻¹
[11]
  Kd: 78 nM
  koff: 0.0056 s⁻¹
  kon: 72000 M⁻¹ s⁻¹

B8: H7 (scFv, V domains shown)
VH: not shown
VL: DIQMTQSPSSLSASVGDRVTITCRASQNVWDWVAWYQQKPGKAPKLLIYPASSLYSGVPSRFSGSGSGTDFTLTISSLQPEDFATYYCQQGWYIAPPTFGQGTKVEIK
notes: not shown: scFv linker carrying the gD tag and the phage coat fusion
[12]
  IC50: 60 nM

B9: 3-7 hIgG (antibody, V domains shown)
VH: not shown
VL: DIQMTQSPSSLSASVGDRVTITCRASQYIWRYVAWYQQKPGKAPKLLIYWGSSLYSGVPSRFSGSGSGTDFTLTISSLQPEDFATYYCQQGLWYSPPTFGQGTKVEIK
notes: also called 3-7 anti-hVEGF
Human VEGF109 [10]
  Kd: 7 nM
  koff: 0.0042 s⁻¹
  kon: 580000 M⁻¹ s⁻¹
[11]
  Kd: 30 nM
  koff: 0.015 s⁻¹
  kon: 500000 M⁻¹ s⁻¹

B10: 3-7 (phage) (scFv, V domains shown, not shown: large carriers; small tags and cut ends)
VH: not shown
VL: DIQMTQSPSSLSASVGDRVTITCRASQYIWRYVAWYQQKPGKAPKLLIYWGSSLYSGVPSRFSGSGSGTDFTLTISSLQPEDFATYYCQQGLWYSPPTFGQGTKVEIK
[13]
  IC50: 16 nM

B11: 3-4 (phage) (scFv, V domains shown, not shown: large carriers; small tags and cut ends)
VH: not shown
VL: DIQMTQSPSSLSASVGDRVTITCRASQEVYSYVAWYQQKPGKAPKLLIYPASSLYSGVPSRFSGSGSGTDFTLTISSLQPEDFATYYCQQGFWIGPPTFGQGTKVEIK
notes: also called c3-4
[13]
  IC50: 32 nM

B12: 35.74 (Fab, V domains shown)
VH: not shown
VL: DIQMTQSPSSLSASVGDRVTITCRAIQDIPKTITGYVAWYQQKPGKAPKLLIYWGSFLYSGVPSRFSGSGSGTDFTLTISSLQPEDFATYYCQQHFNSPPKFGQGTKVEIK
[1]
  IC50: 0.7 nM

B13: H4_N (bispecific antibody, V domains shown)
VH: not shown
VL: DIQMTQSPSSLSASVGDRVTITCRASQNIRSGSVAWYQQKPGKAPKLLIYWASYLYSGVPSRFSGSGSGTDFTLTISSLQPEDFATYYCQQHYTTPPTFGQGTKVEIK
notes: also called H4_N hIgG; H4_N Fab
[14]
  Kd: 9.87 nM and 6 nM
  koff: 0.0013 s⁻¹
  kon: 140000 M⁻¹ s⁻¹ and 230000 M⁻¹ s⁻¹
Human VEGF109 [15]
  Kd: 550 nM

B14: H4 (phage) (scFv, V domains shown)
VH: not shown
VL: DIQMTQSPSSLSASVGDRVTITCRASQNIRTGSVAWYQQKPGKAPKLLIYWGSYLYSGVPSRFSGSGSGTDFTLTISSLQPEDFATYYCQQHYTTPPTFGQGTKVEIK
[16]
  IC50: 115 nM
[17]
  IC50: 0.54 nM

B15: D1 hIgG (bispecific antibody, V domains shown)
VH: not shown
VL: DIQMTQSPSSLSASVGDRVTITCRASQNVSKHVAWYQQKPGKAPKLLIYWGSYLYSGVPSRFSGSGSGTDFTLTISSLQPEDFATYYCQQSYSGPPTFGQGTKVEIK
notes: also called D1 (anti-hDR5/Her2)
[18]
  IC50 (read off the curve): ~50 nM

B16: 3-1 (Table 2) (Fab, V domains shown)
VH: not shown
VL: DIQMTQSPSSLSASVGDRVTITCRASQNVWDWVAWYQQKPGKAPKLLIYPASSLYSGVPSRFSGSGSGTDFTLTISSLQPEDFATYYCQQGWYIAPPTFGQGTKVEIKR
notes: also called 3-1 Fab
[14]
  binding result: no binding
[11]
  Kd: 105 nM
  koff: 0.0036 s⁻¹

B17: 3-1 hIgG (antibody, V domains shown)
VH: not shown
VL: DIQMTQSPSSLSASVGDRVTITCRASQNVWDWVAWYQQKPGKAPKLLIYPASSLYSGVPSRFSGSGSGTDFTLTISSLQPEDFATYYCQQGWYIAPPTFGQGTKVEIKR
notes: also called 3-1 IgG; not shown: rest of the human IgG heavy-chain constant region
hVEGF-C [19]
  binding result: no binding
hVEGF-D [20]
  binding result: no binding
[14]
  binding result: no binding
[11]
  Kd: 44 nM
  koff: 0.016 s⁻¹
Human death receptor 5
  binding result: no binding (tested: 15 µg/mL)
[9]
  binding result: no binding (tested: 15 µg/mL)
Bovine serum albumin
  binding result: no binding (tested: 15 µg/mL)
